Laboratory results published in patent US20260022160A1 (AFFYXELL THERAPEUTICS, published 2026).

T1: human CD40L (human, UniProt P29965 113-261, limits assumed)
T1 sequence (looked up): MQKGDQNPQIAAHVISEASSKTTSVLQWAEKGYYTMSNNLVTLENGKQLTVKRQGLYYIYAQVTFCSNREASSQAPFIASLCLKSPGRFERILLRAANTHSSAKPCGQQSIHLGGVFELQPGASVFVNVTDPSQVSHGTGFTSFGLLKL

T2: human CD40L expressed on HEK293 cells (human, UniProt P29965 1-261)
T2 construct: whole, on cells; also called hCD40L-HEK293 cells; hCD40L-HEK-293 cells (Crown Biosciences, C2041)
T2 sequence (looked up): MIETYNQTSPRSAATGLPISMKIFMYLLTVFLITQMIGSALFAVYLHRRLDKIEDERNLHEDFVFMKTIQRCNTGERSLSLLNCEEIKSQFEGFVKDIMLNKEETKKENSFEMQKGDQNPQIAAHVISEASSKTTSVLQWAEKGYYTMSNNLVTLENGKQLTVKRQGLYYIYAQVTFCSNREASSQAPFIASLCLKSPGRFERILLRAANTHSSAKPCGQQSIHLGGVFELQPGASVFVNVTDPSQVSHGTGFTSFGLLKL


Assays:
human CD40L [1] = target: T1, human CD40L; experiment: cell-based or functional assay
human CD40L [2] = target: T1, human CD40L; experiment: cell-based or functional assay; remark: listed apart in the source
human CD40L [3] = target: T1, human CD40L; experiment: BIACORE (SPR) on hCD40L, kinetic fit; immobilised partner not stated
human CD40L [4] = target: T1, human CD40L; experiment: direct binding ELISA on plate-coated hCD40L (5 ug/ml), detection biotinylated anti-cystatin A antibody + polyHRP-streptavidin, OD 450-630 nm
Method: Plates were washed 2 times with 150 μl of washing buffer (PBS, Tween 20 0.1%) with a plate washer and saturated with Casein 5% (Sigma) in PBS for 90 minutes at room temperature (25±1° C.). For binding, each DAW01 clone and rhCD40 Fc were added to the plate, starting from 1 μM, 1 in 3 and 300 nM, 1 in 3 respectively. Plates were washed 3 times as described previously. […] Then, cystatin A biotinylated polyclonal antibody (BAF1407) was diluted to a concentration of 0.05 μg/ml in dilution buffer (PBS, 1% casein, 0.01% Tween 20) and the plate was incubated for 90 minutes at room temperature (25±1° C.). PolyHRP-streptavidin was then diluted in dilution buffer and the plates were incubated for 90 minutes at room temperature (25±1° C.). The plates were then washed 3 times as described previously, and the substrate (TMB, Pierce Thermo-Scientific) was added to the plates for 10 minutes. The reaction was stopped using an acidic solution, and plates were read at 450-630 nm.

[5] = target: T2, human CD40L expressed on HEK293 cells; experiment: flow cytometry, clone at 1 uM on hCD40L-HEK293 cells (hatched), HEK-293 negative cells as control (open), detection anti-Cystatin A + A488 anti-goat
Method: The cells were resuspended in PBS and 200,000 cells per well were dispatched in a round bottom 96 well plate. Cells were washed with PBS. The stefin A protein variant and controls were diluted in staining buffer containing 1% BSA, 0.01% Sodium Azide (NaN3), 2 mM EDTA in DPBS in duplicate and added on cells for staining for approximately 60 min at 4±1° c. Cells were washed and the secondary anti-Cystatin A (R&D, AF1407) was diluted 0.2 mg/ml in staining buffer and added on cells for staining for approximately 45 min at 4±1° c. Cells were washed again and the detection antibody A488 anti-goat (ThermoFisher, A21467) was diluted 1:500 in staining buffer and added to the cells for staining (approximately 30 min at 4±1° C.). Finally, the cells were washed and live and dead cells were stained using L/D stain Zombie Yellow (Biolegend, 423103) diluted in staining buffer for 10 min at 4±1° C. Cells were washed again and fixation buffer (R&D) was added to each well for 10 min at 4±1° C. then PBS with EDTA (Lonza) was added prior reading the plate on the flow cytometer (Guava 12 HT, Millipore). Dead cells were excluded, and the fluorescent green channel (488 nm/525/30) was acquired. Results were analyzed using Incyte and data were plotted using GraphPad.

human CD40L [6] = target: T1, human CD40L; experiment: cell-based or functional assay; remark: listed apart in the source
human CD40L [7] = target: T1, human CD40L; experiment: competitive ELISA: hCD40L (1 nM) premixed with the binder and added to plate-coated rhCD40 Fc; bound hCD40L detected with biotinylated anti-hCD40L polyclonal antibody
Method: To evaluate the avidity of the different formats, a CD40L competitive ELISA was performed. Briefly, the plates were coated with rhCD40 Fc at 1 μg/ml and incubated overnight at 4° C. The plates were washed twice with 150 μl of washing buffer (PBS, Tween 20 0.1%) with a plate washer and saturated with Casein 5% (Sigma) in PBS for 90 minutes at room temperature (25±1° C.). […] The resulting solution was then mixed and added to the plates. The plates were washed 3 times as described previously. […] The plates were incubated for 90 minutes at room temperature (25±1° C.). The plates were then washed. PolyHRP-Streptavidin was then diluted in dilution buffer and added to the plates. The plates were incubated an additional 90 minutes at room temperature (25±1° C.). Plates were washed 3 times as described previously and the substrate (TMB, Pierce Thermo-Scientific) was added in the plate for 10 minutes. The reaction was stopped using an acidic solution and the plates were read at 450-630 nm and the resulting percent inhibition was calculated.

| EC50 (human CD40L [4]) | % Positive [5] | MFI [5] | also measured | Binder |
| --- | --- | --- | --- | --- |
| 0.00067 µM | 98.8% | 8990 MFI | EC50 (HEK-Blue CD40 reporter cells, SEAP, OD 640 nm, hCD40L 0.8 nM) (human CD40L [1]): 0.0116 µM; EC50 (HEK-Blue cell-based assay, % inhibition) (human CD40L [2]): 0.609 µM; Kd (human CD40L [3]): 0.00815 µM; koff (human CD40L [3]): 0.000975 s⁻¹; kon (human CD40L [3]): 120000 M⁻¹ s⁻¹ | stefin A protein variant clone 230 (designed binder) MIPGGLSEAKPATPEIQEIVDKVKPQLEEKTGETYGKLEAVQYKTQVVHYYVHYNDQGTNYYIKVRAGDNKYMHLKVFKSLWGENLFAKWEDLVLTGYQVDKNKDDELTGF |
| – | – | – | IC50 (read off the curve) (human CD40L [6]): ~0.002 µM; IC50 (read off the curve) (human CD40L [7]): ~0.004 µM | clone-230 DT (trimer with a rigid linker) (designed binder) IPGGLSEAKPATPEIQEIVDKVKPQLEEKTGETYGKLEAVQYKTQVVHYYVHYNDQGTNYYIKVRAGDNKYMHLKVFKSLWGENLFAKWEDLVLTGYQVDKNKDDELTGFAEAAAKEAAAKEAAAKEAAAKEAAAKEAAAKMIPGGLSEAKPATPEIQEIVDKVKPQLEEKTGETYGKLEAVQYKTQVVHYYVHYNDQGTNYYIKVRAGDNKYMHLKVFKSLWGENLFAKWEDLVLTGYQVDKNKDDELTGFAEAAAKEAAAKEAAAKEAAAKEAAAKEAAAKMIPGGLSEAKPATPEIQEIVDKVKPQLEEKTGETYGKLEAVQYKTQVVHYYVHYNDQGTNYYIKVRAGDNKYMHLKVFKSLWGENLFAKWEDLVLTGYQVDKNKDDELTGF |
| – | 98.8% | 9890 MFI | EC50 (HEK-Blue CD40 reporter cells, SEAP, OD 640 nm, hCD40L 0.8 nM) (human CD40L [1]): 0.101 µM; EC50 (HEK-Blue cell-based assay, % inhibition) (human CD40L [2]): 1.19 µM; Kd (human CD40L [3]): 0.00374 µM; koff (human CD40L [3]): 0.00207 s⁻¹; kon (human CD40L [3]): 553000 M⁻¹ s⁻¹ | stefin A protein variant clone 247 (designed binder) MIPGGLSEAKPATPEIQEIVDKVKPQLEEKTGETYGKLEAVQYKTQVVHHAYAAVYVGTNYYIKVRAGDNKYMHLKVFKSLPYWYRKYPDEDLVLTGYQVDKNKDDELTGF |
| – | – | – | IC50 (read off the curve) (human CD40L [6]): ~0.0006 µM; IC50 (read off the curve) (human CD40L [7]): ~0.002 µM | clone-230 DS (tetramer with a rigid linker) (designed binder) IPGGLSEAKPATPEIQEIVDKVKPQLEEKTGETYGKLEAVQYKTQVVHYYVHYNDQGTNYYIKVRAGDNKYMHLKVFKSLWGENLFAKWEDLVLTGYQVDKNKDDELTGFAEAAAKEAAAKEAAAKEAAAKEAAAKEAAAKMIPGGLSEAKPATPEIQEIVDKVKPQLEEKTGETYGKLEAVQYKTQVVHYYVHYNDQGTNYYIKVRAGDNKYMHLKVFKSLWGENLFAKWEDLVLTGYQVDKNKDDELTGFAEAAAKEAAAKEAAAKEAAAKEAAAKEAAAKMIPGGLSEAKPATPEIQEIVDKVKPQLEEKTGETYGKLEAVQYKTQVVHYYVHYNDQGTNYYIKVRAGDNKYMHLKVFKSLWGENLFAKWEDLVLTGYQVDKNKDDELTGFAEAAAKEAAAKEAAAKEAAAKEAAAKEAAAKMIPGGLSEAKPATPEIQEIVDKVKPQLEEKTGETYGKLEAVQYKTQVVHYYVHYNDQGTNYYIKVRAGDNKYMHLKVFKSLWGENLFAKWEDLVLTGYQVDKNKDDELTGF |
| 0.0124 µM | – | – | – | stefin A protein variant clone 227 (designed binder) MIPGGLSEAKPATPEIQEIVDKVKPQLEEKTGETYGKLEAVQYKTQVVHDVFYDQKAGTNYYIKVRAGDNKYMHLKVFKSLKWWYRIGNPEDLVLTGYQVDKNKDDELTGF |
| 0.0173 µM | – | – | – | stefin A protein variant clone 246 (designed binder) MIPGGLSEAKPATPEIQEIVDKVKPQLEEKTGETYGKLEAVQYKTQVVHIPALKVHAGTNYYIKVRAGDNKYMHLKVFKSLPYWYRHDQEEDLVLTGYQVDKNKDDELTGF |
| 0.0575 µM | 98.3% | 4400 MFI | – | stefin A protein variant clone 243 (designed binder) MIPGGLSEAKPATPEIQEIVDKVKPQLEEKTGETYGKLEAVQYKTQVVFTYQISYTVGTNYYIKVRAGDNKYMHLKVFKSLRWRYPARKPEDLVLTGYQVDKNKDDELTGF |
| 0.0264 µM | 97.9% | 7050 MFI | – | stefin A protein variant clone 261 (designed binder) MIPGGLSEAKPATPEIQEIVDKVKPQLEEKTGETYGKLEAVQYKTQVVVDQVWSENAGTNYYIKVRAGDNKYMHLKVFKSLPYLWRKHAVEDLVLTGYQVDKNKDDELTGF |
| 0.0153 µM | – | – | – | stefin A protein variant clone 229 (designed binder) MIPGGLSEAKPATPEIQEIVDKVKPQLEEKTGETYGKLEAVQYKTQVVQYKIITWWSGTNYYIKVRAGDNKYMHLKVFKSLVYKNKRGGHEDLVLTGYQVDKNKDDELTGF |
| 0.00612 µM | – | – | – | stefin A protein variant clone 231 (designed binder) MIPGGLSEAKPATPEIQEIVDKVKPQLEEKTGETYGKLEAVQYKTQVVYYQIITWWQGTNYYIKVRAGDNKYMHLKVFKSLGIRKKQQQREDLVLTGYQVDKNKDDELTGF |
| – | 98.4% | 8540 MFI | – | stefin A protein variant clone 270 (designed binder) MIPGGLSEAKPATPEIQEIVDKVKPQLEEKTGETYGKLEAVQYKTQVVLDGLYHVNSGTNYYIKVRAGDNKYMHLKVFKSLFYYYRSEPTEDLVLTGYQVDKNKDDELTGF |
| – | 98.1% | 9620 MFI | – | stefin A protein variant clone 248 (designed binder) MIPGGLSEAKPATPEIQEIVDKVKPQLEEKTGETYGKLEAVQYKTQVVYDELYHEKAGTNYYIKVRAGDNKYMHLKVFKSLEYKFRNLEEDLVLTGYQVDKNKDDELTGF |
| 0.00307 µM | – | – | – | stefin A protein variant clone 233 (designed binder) MIPGGLSEAKPATPEIQEIVDKVKPQLEEKTGETYGKLEAVQYKTQVVLQDQWPWRDGTNYYIKVRAGDNKYMHLKVFKSLTYGKKWYSWEDLVLTGYQVDKNKDDELTGF |
| 0.0456 µM | – | – | – | stefin A protein variant clone 244 (designed binder) MIPGGLSEAKPATPEIQEIVDKVKPQLEEKTGETYGKLEAVQYKTQVVRENWYGEFAGTNYYIKVRAGDNKYMHLKVFKSLLYIYRHPNYEDLVLTGYQVDKNKDDELTGF |
